Test results as given in patent publication US20210388087A1 (Chugai, published 2021).
Where a chain is given by its changes, count along the chain named. Names may count otherwise.

T1: Human CD3eg linker (human)
T1 construct: Single-chain construct; also called recombinant human CD3
T1 chain: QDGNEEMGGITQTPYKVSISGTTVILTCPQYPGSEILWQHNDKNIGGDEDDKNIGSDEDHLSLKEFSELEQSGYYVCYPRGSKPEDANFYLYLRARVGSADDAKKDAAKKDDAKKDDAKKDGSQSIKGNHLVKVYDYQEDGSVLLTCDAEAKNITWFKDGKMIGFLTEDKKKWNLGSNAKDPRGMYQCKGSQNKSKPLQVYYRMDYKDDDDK

B1: H183/L072 VL V27cI (antibody, name in Kabat numbering, V domains shown)
VH: QVQLVESGGGLVQPGRSLRLSCAASGFTFSNAWMHWVRQAPGKGLEWVAQIKDKGNAYAAYYAPSVKGRFTISRDDSKNSIYLQMNSLKTEDTAVYYCHYVHYASASTVLPAFGVDAWGQGTTVTVSS
VL: DIVMTQSPLSLPVTPGEPASISCQASQELIHMNRNTYLHWYQQKPGQAPRLLIYKVSNRFPGVPDRFSGSGSGTDFTLKISRVEAEDVGVYYCAQGTSVPFTFGQGTKLEIK
B2: H183/L072 VL V51D (antibody, name in Kabat numbering, V domains shown)
VH: B1 VH
VL: B1 VL with I30V, V56D
B3: H183/L072 VL V94N (antibody, name in Kabat numbering, V domains shown)
VH: B1 VH
VL: B1 VL with I30V, V99N
B4: H183/L072 VL V94I (antibody, name in Kabat numbering, V domains shown)
VH: B1 VH
VL: B1 VL with I30V, V99I
B5: H183/L072 VL V94T (antibody, name in Kabat numbering, V domains shown)
VH: B1 VH
VL: B1 VL with I30V, V99T
B6: H183/L072 VL V27cK (antibody, name in Kabat numbering, V domains shown)
VH: B1 VH
VL: B1 VL with I30K
B7: H183/L072 VL V94D (antibody, name in Kabat numbering, V domains shown)
VH: B1 VH
VL: B1 VL with I30V, V99D
B8: H183/L072 VL V51G (antibody, name in Kabat numbering, V domains shown)
VH: B1 VH
VL: B1 VL with I30V, V56G
B9: H183/L072 VL V94F (antibody, name in Kabat numbering, V domains shown)
VH: B1 VH
VL: B1 VL with I30V, V99F
B10: H183/L072 VL V27cT (antibody, name in Kabat numbering, V domains shown)
VH: B1 VH
VL: B1 VL with I30T
B11: H183/L072 VL V27cQ (antibody, name in Kabat numbering, V domains shown)
VH: B1 VH
VL: B1 VL with I30Q
B12: H183/L072 VL V27cM (antibody, name in Kabat numbering, V domains shown)
VH: B1 VH
VL: B1 VL with I30M
B13: H183/L072 VL V94E (antibody, name in Kabat numbering, V domains shown)
VH: B1 VH
VL: B1 VL with I30V, V99E
B14: H183/L072 VL V27cN (antibody, name in Kabat numbering, V domains shown)
VH: B1 VH
VL: B1 VL with I30N
B15: H183/L072 VL V51A (antibody, name in Kabat numbering, V domains shown)
VH: B1 VH
VL: B1 VL with I30V, V56A
B16: H183/L072 VL Y32D (antibody, name in Kabat numbering, V domains shown)
VH: B1 VH
VL: B1 VL with I30V, Y37D
B17: H183/L072 VL V51E (antibody, name in Kabat numbering, V domains shown)
VH: B1 VH
VL: B1 VL with I30V, V56E
B18: H183/L072 VL V51K (antibody, name in Kabat numbering, V domains shown)
VH: B1 VH
VL: B1 VL with I30V, V56K
B19: H183/L072 VL V94A (antibody, name in Kabat numbering, V domains shown)
VH: B1 VH
VL: B1 VL with I30V, V99A
B20: H183/L072 VL V27cY (antibody, name in Kabat numbering, V domains shown)
VH: B1 VH
VL: B1 VL with I30Y
B21: H183/L072 VL V51T (antibody, name in Kabat numbering, V domains shown)
VH: B1 VH
VL: B1 VL with I30V, V56T
B22: H183/L072 VL V94M (antibody, name in Kabat numbering, V domains shown)
VH: B1 VH
VL: B1 VL with I30V, V99M
B23: H183/L072 VL V27cW (antibody, name in Kabat numbering, V domains shown)
VH: B1 VH
VL: B1 VL with I30W
B24: H183/L072 VL V94K (antibody, name in Kabat numbering, V domains shown)
VH: B1 VH
VL: B1 VL with I30V, V99K
B25: H183/L072 VL V51H (antibody, name in Kabat numbering, V domains shown)
VH: B1 VH
VL: B1 VL with I30V, V56H
B26: H183/L072 VL V94S (antibody, name in Kabat numbering, V domains shown)
VH: B1 VH
VL: B1 VL with I30V, V99S
B27: H183/L072 VL V94H (antibody, name in Kabat numbering, V domains shown)
VH: B1 VH
VL: B1 VL with I30V, V99H
B28: H183/L072 VL V94Q (antibody, name in Kabat numbering, V domains shown)
VH: B1 VH
VL: B1 VL with I30V, V99Q
B29: H183/L072 VL V27cR (antibody, name in Kabat numbering, V domains shown)
VH: B1 VH
VL: B1 VL with I30R
B30: H183/L072 VL V51Q (antibody, name in Kabat numbering, V domains shown)
VH: B1 VH
VL: B1 VL with I30V, V56Q
B31: H183/L072 VL V27cL (antibody, name in Kabat numbering, V domains shown)
VH: B1 VH
VL: B1 VL with I30L
B32: H183/L072 VL Y32A (antibody, name in Kabat numbering, V domains shown)
VH: B1 VH
VL: B1 VL with I30V, Y37A
B33: H183/L072 VL V94P (antibody, name in Kabat numbering, V domains shown)
VH: B1 VH
VL: B1 VL with I30V, V99P
B34: H183/L072 VL V51R (antibody, name in Kabat numbering, V domains shown)
VH: B1 VH
VL: B1 VL with I30V, V56R
B35: H183/L072 VL V27cS (antibody, name in Kabat numbering, V domains shown)
VH: B1 VH
VL: B1 VL with I30S
B36: H183/L072 VL Y32E (antibody, name in Kabat numbering, V domains shown)
VH: B1 VH
VL: B1 VL with I30V, Y37E
B37: H183/L072 VL V51S (antibody, name in Kabat numbering, V domains shown)
VH: B1 VH
VL: B1 VL with I30V, V56S
B38: H183/L072 VL V51M (antibody, name in Kabat numbering, V domains shown)
VH: B1 VH
VL: B1 VL with I30V, V56M
B39: H183/L072 VL V94L (antibody, name in Kabat numbering, V domains shown)
VH: B1 VH
VL: B1 VL with I30V, V99L
B40: H183/L072 VL V51L (antibody, name in Kabat numbering, V domains shown)
VH: B1 VH
VL: B1 VL with I30V, V56L
B41: H183/L072 VL V51I (antibody, name in Kabat numbering, V domains shown)
VH: B1 VH
VL: B1 VL with I30V, V56I
B42: H183/L072 VL V94R (antibody, name in Kabat numbering, V domains shown)
VH: B1 VH
VL: B1 VL with I30V, V99R

Target: T1, Human CD3eg linker
Assay: SPR; fold vs parent H183/L072

Binder	fold change of affinity [fold]
B1	1
B2	0
B3	0.9
B4	0.8
B5	1.3
B6	1.1
B7	0.5
B8	0.4
B9	0.2
B10	0.8
B11	1
B12	1.1
B13	0.4
B14	0.3
B15	0.6
B16	0
B17	0.4
B18	0.8
B19	1
B20	0.5
B21	0.2

Binder	fold change of affinity [fold]
B22	0.8
B23	0.3
B24	0.4
B25	0.2
B26	0.7
B27	0.8
B28	1
B29	1.2
B30	0.5
B31	0.8
B32	0
B33	1.5
B34	0.9
B35	0
B36	0
B37	0.3
B38	0.5
B39	0.3
B40	0.6
B41	1.4
B42	0.5
